Reference: article PMC4144707 (Biochemistry, 2014)
Where no end group is shown, it is not given here.

B1: FGFR3 TM–JM (WT) peptide, FGFR3 (369–407) with two N-terminal arginines (peptide)
peptide: RRAGSVYAGILSYGVGFFLFILVVAAVTLCRLRSPPKKGLG-NH2
modifications: also: (5,5,5-d3) leucine at 385 or 388
B2: FGFR3 TM–JM (A391E) peptide, FGFR3 (369–407) with two N-terminal arginines (peptide)
peptide: RRAGSVYAGILSYGVGFFLFILVVEAVTLCRLRSPPKKGLG-NH2
modifications: also: (5,5,5-d3) leucine at 385 or 388

Target: the molecule itself
Assay: deuterium MAS solid-state NMR

Protein | binding result
B1 | binds
B2 | binds
